Legend:
[1] = molecular target: TY-145 protease variant I150A, S173P, S175P, F180Y (Bacillus sp. TY-145); experiment: Ki fitted from Suc-AAPF-pNA activity; Tris buffer pH 8; ratio against m3 (without I150A)
[2] = molecular target: TY-145 protease variant K146F, S173P, S175P, F180Y (Bacillus sp. TY-145); experiment: Ki fitted from Suc-AAPF-pNA activity; Tris buffer pH 8; ratio against m3 (without K146F)
[3] = molecular target: TY-145 protease variant S27K, I121V, S171N, S173P, G174R, S175P, F180Y, L184F, Q198E, T297P (Bacillus sp. TY-145); experiment: Ki fitted from Suc-AAPF-pNA activity; Model B detergent; ratio against m6 (without L184F)
[4] = molecular target: TY-145 protease variant S27K, S173P, G174K, S175P, F180Y, L184Y, Q198E, N199K, T297P (Bacillus sp. TY-145); experiment: Ki fitted from Suc-AAPF-pNA activity; Model B detergent; ratio against m8 (without L184Y)
[5] = molecular target: TY-145 protease variant S27K, S171N, S173P, G174R, S175P, F180Y, G182A, L184F, Q198E, N199K, R224G, T297P (Bacillus sp. TY-145); experiment: Ki fitted from Suc-AAPF-pNA activity; Model B detergent; ratio against m13 (without R224G)
[6] = molecular target: TY-145 protease variant S27K, V162T, S173P, G174K, S175P, F180Y, L184F, Q197K, Q198E, T297P (Bacillus sp. TY-145); experiment: Ki fitted from Suc-AAPF-pNA activity; Model B detergent; ratio against m14 (without L184F)
[7] = molecular target: TY-145 protease (mature, SEQ ID NO: 3) (Bacillus sp. TY-145); experiment: Ki fitted from Suc-AAPF-pNA activity; Model B detergent; the reference itself (TY145 backbone)
[8] = molecular target: TY-145 protease variant S114Q, S173P, S175P, F180Y (Bacillus sp. TY-145); experiment: Ki fitted from Suc-AAPF-pNA activity at 8 inhibitor concentrations; Model B detergent; ratio against m3 (without S114Q)

## Z-Gly-Ala-NHCH(CH2C6H4pOH)C(OH)(SO3Na)-H, wherein Z is benzyloxycarbonyl (peptide)
[1]
  relative Ki mutation: 0.4
[2]
  relative Ki mutation: 0.19
[3]
  relative Ki mutation: 0.3
[4]
  relative Ki mutation: 0.21
[5]
  relative Ki mutation: 0.69
[6]
  relative Ki mutation: 0.17
[7]
  IF (binding constant improvement factor, relative Ki): 1
[8]
  relative Ki mutation: 0.63
